From patent US20220396627A1 (VERSEAU THERAPEUTICS, published 2022)

B1: 2E23 (antibody, V domains shown)
VH: QVQLQQPGAELVKPGASVKLSCKASGYTFTSYWMHWVKQRPGQGLEWIGEINPSNGGTNYNEKFKSKATLTVDKSSSTAYMQLSSLTSEDSAVYYCTIYYGDYSYPIDYWGQGTSVTVSS
VL: QIVLTQSPAIMSASPGEKVTLTCSASSSVSSSYLYWYQQKPGSSPKLWIYSTSNLASGVPTRFSGSGSGTSYCLTISSMETEDAASYFCHQYSSYPFTFGSGTKLEIK
B2: 13H10 mouse/human chimeric antibody (human IgG4 S228P, kappa) (antibody, V domains shown)
VH: QVQLQQPGAELVKPGASVKLSCKASGYTFTSYWMYWVKQRPGQGLDLIGEINPSNGGTNYNEKFKSKATLTVDKSSGTAYMQLSSLTSEDSAVYYCAIWKDYYGISYEDWYFDVWGTGTTVTVSS
VL: DILLTQSPAILSVSPGERVSFSCRASQSIGTSIHWYQQRTNGSPRLLIKYASESISGIPSRFSGSGSGTDFTLSINSVESEDIADYYCQQSNSWPLTFGAGTKLELKR
notes: 13H10 is deposited as ATCC PTA-125944
B3: 13J19 mouse/human chimeric antibody (human IgG4 S228P, kappa) (antibody, V domains shown)
VH: QVQLKESGPGLVAPSQSLSITCTVSGFSLTSYGVSWVRQPPGKGLEWLGVVWRDGTTNYHSALISRLSISKDNSKSQVFLKLNSLQTDDTATYYCARPYYGFFDYWGQGTTLTVSS
VL: SIVMTQTPKFLLVSAGDRVTVTCKASQSVSNAVAWYQQKPGQSPKLLIYYASNRYTGVPDRFTGSGYGTDFTFTISTVQAEDLAVYFCQQNYNSPYTFGGGTKLEIKR
notes: 13J19 is deposited as ATCC PTA-125945

Key:
[1] = target: Human Siglec-9-Fc (recombinant human Siglec-9 extracellular domain Q18-G348 fused to human IgG1 Fc) (human); assay: ELISA: plate coated with 1 ug/mL human Siglec-9-Fc, antibody at 100 nM, HRP anti-mouse Fc secondary, RLU
Sequence of Human Siglec-9-Fc (recombinant human Siglec-9 extracellular domain Q18-G348 fused to human IgG1 Fc) (human) (chain, as listed by the source limits assumed): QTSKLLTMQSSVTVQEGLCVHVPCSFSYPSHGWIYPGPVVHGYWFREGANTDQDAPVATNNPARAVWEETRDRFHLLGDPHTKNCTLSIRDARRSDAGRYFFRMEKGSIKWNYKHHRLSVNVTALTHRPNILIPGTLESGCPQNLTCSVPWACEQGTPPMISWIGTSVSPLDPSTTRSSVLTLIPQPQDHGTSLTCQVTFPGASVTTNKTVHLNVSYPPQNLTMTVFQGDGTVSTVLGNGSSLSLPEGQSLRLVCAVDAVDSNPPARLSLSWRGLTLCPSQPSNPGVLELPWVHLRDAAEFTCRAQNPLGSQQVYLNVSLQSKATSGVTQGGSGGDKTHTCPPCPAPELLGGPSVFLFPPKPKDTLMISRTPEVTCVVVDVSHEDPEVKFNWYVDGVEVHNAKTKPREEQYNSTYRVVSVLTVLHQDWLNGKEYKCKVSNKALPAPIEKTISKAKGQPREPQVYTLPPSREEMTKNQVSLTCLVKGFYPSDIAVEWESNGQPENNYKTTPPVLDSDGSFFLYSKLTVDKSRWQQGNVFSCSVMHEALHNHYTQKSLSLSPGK
Protocol: ELISA plates (384-well) were coated with 1 ug/mL indicated SIGLEC protein at room temperature. The plates were washed with PBS with 0.1% Tween®20, pH 7.4 and blocked with TBS containing 3% BSA. The plates were washed and incubated with anti-SIGLEC9 antibody diluted to 100 nM. Plates were washed and incubated with HRP-coupled anti-mouse Fc secondary antibody. Plates underwent a final wash and were incubated with HRP substrate. Readout was performed using a POLARstar Omega Microplate Reader (BMG LAPTECH).

[2] = target: T1, Recombinant human Siglec-9-His (human, UniProt Q9Y336 18-348); assay: BLI (Octet Red384), chimeric antibody on AHC sensor, His-tagged analyte 100-1.56 nM, 1:1 global fit
T1 construct: The entry begins at QTSK... like the Q18-G348 extracellular domain of the Fc fusion and ends in GSG and a His tag
T1 sequence (Q9Y336 other isoform, or with tags, fused parts or gaps limits assumed): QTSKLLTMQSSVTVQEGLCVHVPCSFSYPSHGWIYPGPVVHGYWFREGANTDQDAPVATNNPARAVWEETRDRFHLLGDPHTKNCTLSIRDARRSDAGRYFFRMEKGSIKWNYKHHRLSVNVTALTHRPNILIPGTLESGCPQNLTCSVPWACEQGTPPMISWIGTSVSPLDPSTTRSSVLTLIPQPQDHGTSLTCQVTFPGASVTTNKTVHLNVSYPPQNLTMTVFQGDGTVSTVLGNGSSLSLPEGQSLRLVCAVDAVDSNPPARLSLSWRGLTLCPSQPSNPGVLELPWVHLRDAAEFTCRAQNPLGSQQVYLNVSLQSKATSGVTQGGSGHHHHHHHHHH
Protocol: (§1) The binding affinity of chimeric antibodies was determined by biolayer interferometry (BLI), using a ForteBio Octet Red384 system. All samples were prepared in black 96-well flat bottom plates (Greiner, Cat. #655209) diluted in kinetics buffer (lx DPBS (Gibco, Cat. #LS14190250) containing 0.1% bovine serum albumin, 0.05% sodium azide, and 0.02% Tween®20). Anti-SIGLEC-9 antibodies (ligand) were diluted to a final concentration of 10 ug/mL and captured on anti-human IgG Fc capture (AHC) biosensors (ForteBio, Cat. #18-5060). […] Biosensors were rehydrated prior to the assay in kinetics buffer for 10 minutes and then equilibrated in kinetics buffer for 60 seconds. Antibody was then immobilized for 300 seconds followed by a 120 second baseline wash in fresh kinetics buffer, 300 second analyte association, and 300 second dissociation in the same buffer wells as the baseline wash step. All assay steps occurred at 30° C. with an acquisition rate of 5.0 Hz
(§2) Processing parameters included double reference subtraction, with human IgG4 used as an isotype control for reference sensor subtraction and immobilized ligand in kinetics buffer with no analyte used for reference sample subtraction. Y-axis data was aligned to the average baseline step for the last 5 seconds and all steps were inter-step corrected to the start of the dissociation step. High frequency noise was removed using Savitzky-Golay filtering and final fitting was a 1:1 global binding model to both association and dissociation.

[3] = target: T2, Recombinant human Siglec-7-His (human, UniProt Q9Y286 19-353, limits assumed); assay: BLI (Octet Red384), chimeric antibody on AHC sensor, His-tagged analyte
T2 sequence (Q9Y286 19-353 limits assumed): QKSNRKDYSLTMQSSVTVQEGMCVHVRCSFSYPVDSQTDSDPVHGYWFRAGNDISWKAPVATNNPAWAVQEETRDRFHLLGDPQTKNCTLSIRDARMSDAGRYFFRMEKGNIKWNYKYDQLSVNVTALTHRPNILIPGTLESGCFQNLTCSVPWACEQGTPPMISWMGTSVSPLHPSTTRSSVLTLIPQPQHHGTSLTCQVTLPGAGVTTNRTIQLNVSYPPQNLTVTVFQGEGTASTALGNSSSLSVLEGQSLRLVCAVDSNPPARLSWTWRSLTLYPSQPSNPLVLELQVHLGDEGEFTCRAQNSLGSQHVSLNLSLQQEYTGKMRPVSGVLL
Protocol: as §1, §2

[4] = target: T3, Recombinant cyno Siglec-9-His (cynomolgus macaque); assay: as above
T3 construct: also called Cynomolgus Monkey SIGLEC9-HIS
T3 sequence (chain, as listed by the source limits assumed): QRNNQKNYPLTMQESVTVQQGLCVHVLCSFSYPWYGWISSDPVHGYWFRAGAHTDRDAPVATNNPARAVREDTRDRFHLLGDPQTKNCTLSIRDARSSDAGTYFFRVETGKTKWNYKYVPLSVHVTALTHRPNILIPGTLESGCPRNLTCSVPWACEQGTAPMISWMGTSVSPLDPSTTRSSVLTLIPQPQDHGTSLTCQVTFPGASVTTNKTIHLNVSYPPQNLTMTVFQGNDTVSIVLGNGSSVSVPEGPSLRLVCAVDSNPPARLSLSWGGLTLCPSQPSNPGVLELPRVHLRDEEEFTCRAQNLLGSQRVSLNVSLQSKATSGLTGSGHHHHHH
Protocol: as §1, §2

[5] = target: T2, Recombinant human Siglec-7-His; assay: BLI (Octet Red384), chimeric antibody on AHC sensor, His-tagged analyte 100-1.56 nM, 1:1 global fit
Protocol: as §1, §2

[6] = target: T3, Recombinant cyno Siglec-9-His; assay: as above
Protocol: as §1, §2

Binder | binding result [1] | Kd [2] [pM] | binding result [3] | binding result [4] | Kd [5] [pM] | Kd [6] [pM]
B1 | binds | – | – | – | – | –
B2 | – | 2.6 | no binding (tested: analyte titrated from 100 nM to 1.56 nM) | no binding (tested: analyte titrated from 100 nM to 1.56 nM) | – | –
B3 | – | 2.1 | – | – | 20000 | 6.8
